Data on five sequences can be found in the supplement of paper PMC5998384.

For data set [1], the system named is HeLa Kyoto. As to the kind of experiment: solubility change mitosis vs G1/S (difference of NP-40 vs SDS log2 ratios) (log2 ratio difference); higher = more soluble in mitosis.
Data set [2] concerns HeLa Kyoto. As to the kind of experiment: thermal stability score vs G1/S (z-score of summed log2 fold changes over temperatures); higher = more thermally stable than in G1/S.
The subject of data set [3] is HeLa Kyoto. As to the kind of experiment: melting temperature (median over replicates), in situ; higher = more thermally stable.
The subject of data set [4] is HeLa Kyoto. As to the kind of experiment: solubility in G1/S (NP-40 vs SDS abundance) (log2 ratio); higher = more soluble. The note with it: cell cycle stage: G1/S.
Where [5] appears, read: cell cycle stage: early G1 (4.5 h after nocodazole release).
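For melting temperature (median over replicates), in situ in this document: HeLa Kyoto cells synchronized by double thymidine or nocodazole block, proteins quantified by TMT10plex mass spectrometry, three independent biological replicates.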
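For solubility change mitosis vs G1/S (difference of NP-40 vs SDS log2 ratios) in this document: synchronized HeLa Kyoto cells (double thymidine block for G1/S, nocodazole release for mitosis), protein amounts in NP-40 versus SDS lysates quantified by mass spectrometry, three biological replicates.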
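For solubility in G1/S (NP-40 vs SDS abundance) in this document: HeLa Kyoto cells arrested at G1/S by double thymidine block, proteins quantified by TMT10plex mass spectrometry in mild NP-40 versus SDS extracts, three biological replicates.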
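For thermal stability score vs G1/S (z-score of summed log2 fold changes over temperatures) in this document: synchronized HeLa Kyoto cells, proteins quantified by TMT10plex mass spectrometry, three biological replicates, mitosis taken 0.5 h after nocodazole release, G1/S directly after double thymidine block.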

Take “MQWLRVRESPGEATGHRVTMGTAALGPVWAALLLFLLMCEIPMVELTFDRAVASGCQRCCDSEDPLDPAHVSSASSSGRPHALPEIRPYINITILKGDKGDPGPMGLPGYMGREGPQGEPGPQGSKGDKGEMGSPGAPCQKRFFAFSVGRKTALHSGEDFQTLLFERVFVNLDGCFDMATGQFAAPLRGIYFFSLNVHSWNYKETYVHIMHNQKEAVILYAQPSERSIMQSQSVMLDLAYGDRVWVRLFKRQRENAIYSNDFDTYITFSGHLIKAEDD [C1QTNF6]”: the “solubility change mitosis (log2)” value in the data set with HeLa Kyoto [1] was -0.235. Also, the thermal stability score is 0.27 with HeLa Kyoto [2] (setting [5]) and -0.884 in the data set with HeLa Kyoto [2] (cell cycle stage: mitosis). Besides, the melting temperature in the data set with HeLa Kyoto [3] (cell cycle stage: mitosis) was determined as 55 °C. Besides, the “solubility in G1/S (log2)” value in the data set on HeLa Kyoto [4] turned out to be 0.0492.

As for “MRAVLDTADIAIVALYFILVMCIGFFAMWKSNRSTVSGYFLAGRSMTWVAIGASLFVSNIGSEHFIGLAGSGAASGFAVGAWEFNALLLLQLLGWVFIPIYIRSGVYTMPEYLSKRFGGHRIQVYFAALSLILYIFTKLSVDLYSGALFIQESLGWNLYVSVILLIGMTALLTVTGGLVAVIYTDTLQALLMIIGALTLMIISIMEIGGFEEVKRRYMLASPDVTSILLTYNLSNTNSCNVSPKKEALKMLRNPTDEDVPWPGFILGQTPASVWYWCADQVIVQRVLAAKNIAHAKGSTLMAGFLKLLPMFIIVVPGMISRILFTDDIACINPEHCMLVCGSRAGCSNIAYPRLVMKLVPVGLRGLMMAVMIAALMSDLDSIFNSASTIFTLDVYKLIRKSASSRELMIVGRIFVAFMVVISIAWVPIIVEMQGGQMYLYIQEVADYLTPPVAALFLLAIFWKRCNEQGAFYGGMAGFVLGAVRLILAFAYRAPECDQPDNRPGFIKDIHYMYVATGLFWVTGLITVIVSLLTPPPTKEQIRTTTFWSKKNLVVKENCSPKEEPYKMQEKSILRCSENNETINHIIPNGKSEDSIKGLQPEDVNLLVTCREEGNPVASLGHSEAETPVDAYSNGQAALMGEKERKKETDDGGRYWKFIDWFCGFKSKSLSKRSLRDLMEEEAVCLQMLEETRQVKVILNIGLFAVCSLGIFMFVYFSL [SLC5A3]”, the “solubility change mitosis (log2)” value in the data set on HeLa Kyoto [1] stood at 0.0469. The results for the thermal stability score with HeLa Kyoto [2] (setting [5]) and in the data set with HeLa Kyoto [2] (cell cycle stage: mitosis) were 0.7 and 0.41, respectively. Moreover, the melting temperature with HeLa Kyoto [3] (cell cycle stage: G1/S) was 57.3 °C; with HeLa Kyoto [3] (cell cycle stage: mitosis), 55.9 °C. Further, the “solubility in G1/S (log2)” value in the data set with HeLa Kyoto [4] was -0.218.

Take “MRCALALSALLLLLSTPPLLPSSPSPSPSPSQNATQTTTDSSNKTAPTPASSVTIMATDTAQQSTVPTSKANEILASVKATTLGVSSDSPGTTTLAQQVSGPVNTTVARGGGSGNPTTTIESPKSTKSADTTTVATSTATAKPNTTSSQNGAEDTTNSGGKSSHSVTTDLTSTKAEHLTTPHPTSPLSPRQPTSTHPVATPTSSGHDHLMKISSSSSTVAIPGYTFTSPGMTTTLLETVFHHVSQAGLELLTSGDLPTLASQSAGITASSVISQRTQQTSSQMPASSTAPSSQETVQPTSPATALRTPTLPETMSSSPTAASTTHRYPKTPSPTVAHESNWAKCEDLETQTQSEKQLVLNLTGNTLCAGGASDEKLISLICRAVKATFNPAQDKCGIRLASVPGSQTVVVKEITIHTKLPAKDVYERLKDKWDELKEAGVSDMKLGDQGPPEEAEDRFSMPLIITIVCMASFLLLVAALYGCCHQRLSQRKDQQRLTEELQTVENGYHDNPTLEVMETSSEMQEKKVVSLNGELGDSWIVPLDNLTKDDLDEEEDTHL [PODXL]”: in the data set with HeLa Kyoto [1], the “solubility change mitosis (log2)” value is -0.092. Moreover, the results for the thermal stability score in the data set with HeLa Kyoto [2] (setting [5]) and with HeLa Kyoto [2] (cell cycle stage: mitosis) were -3.38 and -2.15, respectively. For the same sequence, the melting temperature in the data set on HeLa Kyoto [3] (cell cycle stage: G1/S) was determined as 58.6 °C. Besides, the “solubility in G1/S (log2)” value in the data set with HeLa Kyoto [4] was -0.214.

As to “MRCLAARVNYKTLIIICALFTLVTVLLWNKCSSDKAIQFPRRSSSGFRVDGFEKRAAASESNNYMNHVAKQQSEEAFPQEQQKAPPVVGGFNSNVGSKVLGLKYEEIDCLINDEHTIKGRREGNEVFLPFTWVEKYFDVYGKVVQYDGYDRFEFSHSYSKVYAQRAPYHPDGVFMSFEGYNVEVRDRVKCISGVEGVPLSTQWGPQGYFYPIQIAQYGLSHYSKNLTEKPPHIEVYETAEDRDKNKPNDWTVPKGCFMANVADKSRFTNVKQFIAPETSEGVSLQLGNTKDFIISFDLKFLTNGSVSVVLETTEKNQLFTIHYVSNAQLIAFKERDIYYGIGPRTSWSTVTRDLVTDLRKGVGLSNTKAVKPTKIMPKKVVRLIAKGKGFLDNITISTTAHMAAFFAASDWLVRNQDEKGGWPIMVTRKLGEGFKSLEPGWYSAMAQGQAISTLVRAYLLTKDHIFLNSALRATAPYKFLSEQHGVKAVFMNKHDWYEEYPTTPSSFVLNGFMYSLIGLYDLKETAGEKLGKEARSLYERGMESLKAMLPLYDTGSGTIYDLRHFMLGIAPNLARWDYHTTHINQLQLLSTIDESPVFKEFVKRWKSYLKGSRAKHN [GLCE]”, the “solubility change mitosis (log2)” value in the data set with HeLa Kyoto [1] is -0.162. The thermal stability score in the data set with HeLa Kyoto [2] (setting [5]) was -0.914; in the data set with HeLa Kyoto [2] (cell cycle stage: mitosis), -0.99. Moreover, the melting temperature in the data set on HeLa Kyoto [3] (cell cycle stage: G1/S) and with HeLa Kyoto [3] (cell cycle stage: mitosis) was 53.9 °C in each case. In the data set with HeLa Kyoto [4], the “solubility in G1/S (log2)” value was -0.0659.

As to “MREIVHIQAGQCGNQIGAKFWEVISDEHGIDPTGTYHGDSDLQLDRISVYYNEATGGKYVPRAILVDLEPGTMDSVRSGPFGQIFRPDNFVFGQSGAGNNWAKGHYTEGAELVDSVLDVVRKEAESCDCLQGFQLTHSLGGGTGSGMGTLLISKIREEYPDRIMNTFSVVPSPKVSDTVVEPYNATLSVHQLVENTDETYCIDNEALYDICFRTLKLTTPTYGDLNHLVSATMSGVTTCLRFPGQLNADLRKLAVNMVPFPRLHFFMPGFAPLTSRGSQQYRALTVPELTQQVFDAKNMMAACDPRHGRYLTVAAVFRGRMSMKEVDEQMLNVQNKNSSYFVEWIPNNVKTAVCDIPPRGLKMAVTFIGNSTAIQELFKRISEQFTAMFRRKAFLHWYTGEGMDEMEFTEAESNMNDLVSEYQQYQDATAEEEEDFGEEAEEEA [TUBB]”, the “solubility change mitosis (log2)” value in the data set with HeLa Kyoto [1] was -0.117. The thermal stability score in the data set with HeLa Kyoto [2] (setting [5]) was 0.696; with HeLa Kyoto [2] (cell cycle stage: mitosis), -1.83. Further, the melting temperature is 56.4 °C in the data set on HeLa Kyoto [3] (cell cycle stage: G1/S) and 54.4 °C with HeLa Kyoto [3] (cell cycle stage: mitosis). The “solubility in G1/S (log2)” value in the data set on HeLa Kyoto [4] was 0.245.
